Measured values published in patent US20160038588A1, “Myostatin Antagonism in Human Subjects” (AMGEN INC., priority 2013, published 2016).

System: men with prostate cancer receiving ADT
Assay: Clinical study: safety (adverse events, laboratory variables, ECG, vital signs)
Type: in vivo, human
Details: for DEATHS ON STUDY: during study or within 30 days of last dose
Experimental: Adverse events and concomitant medications were recorded at all study visits.
For safety analyses, all subjects who received AMG 745 or placebo were included and placebo-treated subjects from all cohorts were combined to form a composite placebo group.

[1] = 0.3 mg/kg SC 4-Week Dosing (N = 6)
[2] = 1.0 mg/kg SC 4-Week Dosing (N = 6)
[3] = 3.0 mg/kg SC 4-Week Dosing (N = 19)

Substance: AMG 745: anti-myostatin peptibody: human IgG1 Fc fused at C-terminus via GGGGGAQ linker to peptide SEQ ID NO:311; chain SEQ ID NO:635
- ALL ADVERSE EVENTS [1]: 5 (83) n (%)
- ALL TREATMENT-RELATED ADVERSE EVENTS [1]: 1 (17) n (%)
- INVESTIGATIONAL PRODUCT DISCONTINUATIONS DUE TO ADVERSE EVENTS [1]: 0 (0) n (%)
- STUDY DISCONTINUATIONS DUE TO ADVERSE EVENTS [1]: 0 (0) n (%)
- Serious adverse events (all adverse events) [1]: 0 (0) n (%)
- Serious adverse events (treatment-related) [1]: 0 (0) n (%)
- DEATHS ON STUDY [1]: 0 (0) n (%)
- ALL ADVERSE EVENTS [2]: 5 (83) n (%)
- ALL TREATMENT-RELATED ADVERSE EVENTS [2]: 3 (50) n (%)
- INVESTIGATIONAL PRODUCT DISCONTINUATIONS DUE TO ADVERSE EVENTS [2]: 0 (0) n (%)
- STUDY DISCONTINUATIONS DUE TO ADVERSE EVENTS [2]: 0 (0) n (%)
- Serious adverse events (all adverse events) [2]: 0 (0) n (%)
- Serious adverse events (treatment-related) [2]: 0 (0) n (%)
- DEATHS ON STUDY [2]: 0 (0) n (%)
- ALL ADVERSE EVENTS [3]: 15 (79) n (%)
- ALL TREATMENT-RELATED ADVERSE EVENTS [3]: 3 (16) n (%)
- INVESTIGATIONAL PRODUCT DISCONTINUATIONS DUE TO ADVERSE EVENTS [3]: 1 (5) n (%)
- STUDY DISCONTINUATIONS DUE TO ADVERSE EVENTS [3]: 0 (0) n (%)
- Serious adverse events (all adverse events) [3]: 1 (5) n (%)
- Serious adverse events (treatment-related) [3]: 0 (0) n (%)
- DEATHS ON STUDY [3]: 0 (0) n (%)
- relationship between subject incidence of adverse events and dose (0.3 to 3 mg/kg): No relationship was apparent
- highest alanine aminotransferase [ALT] (1 subject, 0.3 mg/kg): 1.7 times the upper limit of normal (ULN)
- highest alkaline phosphatase [AP] (1 subject, 0.3 mg/kg): 1.5 times the upper limit of normal (ULN)
- highest aspartate aminotransferase [AST] (1 subject, 0.3 mg/kg): 2.2 times the upper limit of normal (ULN)
- injection site bruising, subject incidence (2/31): 6%
- subjects discontinued because of adverse events (erythema of the abdomen) (3-mg/kg dose cohort, after the second dose): 1 subject
- serious adverse events (syncope), number (3-mg/kg dose cohort, considered unrelated to treatment): 1
- contusion, subject incidence (3/31): 10%
- diarrhea, subject incidence (4/31): 13%
- fatigue, subject incidence (4/31): 13%
- tolerability (4 weekly SC doses, as high as 3.0 mg/kg): generally well tolerated
- subjects with treatment-related adverse events (AMG 745 at any dose, 7 of 31 subjects): 23%
- subjects with adverse events (AMG 745 at any dose, 25 of 31 subjects): 81%
- ALL ADVERSE EVENTS (All AMG 745 Subjects (N = 31)): 25 (81) n (%)
- ALL TREATMENT-RELATED ADVERSE EVENTS (All AMG 745 Subjects (N = 31)): 7 (23) n (%)
- INVESTIGATIONAL PRODUCT DISCONTINUATIONS DUE TO ADVERSE EVENTS (All AMG 745 Subjects (N = 31)): 1 (3) n (%)
- STUDY DISCONTINUATIONS DUE TO ADVERSE EVENTS (All AMG 745 Subjects (N = 31)): 0 (0) n (%)
- Serious adverse events (all adverse events) (All AMG 745 Subjects (N = 31)): 1 (3) n (%)
- Serious adverse events (treatment-related) (All AMG 745 Subjects (N = 31)): 0 (0) n (%)
- DEATHS ON STUDY (All AMG 745 Subjects (N = 31)): 0 (0) n (%)
- fasting plasma glucose, insulin, cholesterol, LDL, HDL, triglycerides vs placebo (human, in vivo): no apparent differences between treatment groups
